Experimental data reported in patent US20230095569A1 (ANTENGENE BIOLOGICS, published 2023).
Numbering of substitutions follows the chain as printed.

B1: Ab16 (antibody, V domains shown)
VH: EVMLVESGGGLVKPGGSLKLSCAASGFTFNSYTMSWVRQTPEKRLEWVATITVIGGNTYYLDSVKGRFTISIDNGKNTLYLQMSSLRSEDTALYYCARMGQTQRNAMDYWGQGTSVTVSS
VL: DIVMTQSPSSLSVSAGQKVTMRCKSSQSLLNSGNQKNYLAWYQQKLGQPPKLLIYGASTRESGVPDRFSGSGSGTDFTLTITSVQAEDLAVYYCQNDYSFPLTFGAGTKLELK
notes: mouse monoclonal (hybridoma)
B2: Ab17 (antibody, V domains shown)
VH: QVQLKESGPGLVAPSQSLSITCTVSGFSLTSYAISWVRQPPGKGLEWLGEIWTGGGTNYNSALKSRLSISKDNSKSQVFLKMNSLQTDDTARYYCGRLSYGNSLDYWGQGTTLTVSS
VL: DIVMTQSPSSLTVTAGEKVTMSCKSSQSLLNSGNQKNYLTWYQQKPGQPPKLLIYWASTRESGVPDRFTGSGSGTDFTLTVSSVQAEDLAVYYCQNNFIYPLTFGPGTKLELK
notes: mouse monoclonal (hybridoma)
B3: Ab19 (antibody, V domains shown)
VH: EVMLVESGGDLVKPGGSLKLSCAASGFSFSRYTMSWVRQTPEKRLEWVATVSVGSGNTYYLDSVKGRFTISRDNAKNTLFLQMSSLRSEDTALYYCARMGQTQRNAVDYWGQGTSVTVSS
VL: DIVMTQSPSSLSVSAGEKVTMSCKSSQSLFNSGNQKNYLAWYQQKPGQPPKLLIYGASTRESGVPDRFTGSGSGTDFTLTISNVQAEDLAVYLCQNDHSFPLTFGAGTKLEL
notes: mouse monoclonal (hybridoma)
B4: Ab15 (antibody, V domains shown)
VH: EVMLVESGGDLVKPGGSLKLSCAASGFTFSTYTMSWVRQTPEKRLEWVATIVGGGGYTYYLDSVKGRFTISRDNAKNTLYLQMISLRSEDTALYYCARMGLTQRNALDYWGQGTSITVSS
VL: DIVMTQSPSSLSVSEGEKVTLNCKSSQSLFNSGNQKNYLAWYQQKPGQPPKLLIYGASTRESGVPDRFTGSGFGTDFTLTISSVQAEDLAVYYCQNDHTYPLTFGAGAKLELK
notes: mouse monoclonal (hybridoma); also called mAb Ab15
B5: Ab24 (antibody, V domains shown)
VH: EVKLVESGGGLVKPGGSLKLSCAGSGFTFSSYTMSWVRQTPEKRLEWVATITIGVNIYYLDSVKGRFTISRDNAKNTLYLQMNSLRSEDTALYYCTRLGQTQRNAMDYWGQGTSVTVSS
VL: B3 VL with S9T, S22T, Q44E, N83S, L93Y, D97V, S99F, F100Y, L102F
notes: mouse monoclonal (hybridoma)
B6: Ab18 (antibody, V domains shown)
VH: QVQLKESGPGLVAPSQSLSITCTVSGFSLTTYGINWVRQPPGKGLEWLGVIWGDGSTNYHSALISRLSISKDNSKSQVFLKLNSLQTDDTATYYCVKSSYYGNAMDYWGQGTSVTVSS
VL: DIVMTQSPSSLTVTAGETVTMSCKSSQSLLNSGNQKNYLTWYQQKPGQPPKLLIYWASTRESGVPDRFTGSGSGTDFTLTISSVQAEDLAVYYCQNVYSYPFTFGSGTKLEI
notes: mouse monoclonal (hybridoma)
B7: Ab25 (antibody, V domains shown)
VH: EAQLQQSGPELVKPGASVKIFCKASGYTFTDYYINWVKQSHGKSLEWIGDINPNNGGTTYNQKFKGKATLTVDKSSSTASMELRRLTSEDSSVYYCARRDAMDYWGQGTSVTVSS
VL: DIVMTQSQKFMSTTVGDRVSITCTASQNVGPAVAWYQQKPGQSPKLLIYSASRRFTGVPDRFTGSGSGTVFTLTINNVQSEDLADYFCQQYISYPLTFGAGTKLELK
notes: mouse monoclonal (hybridoma)
B8: chAb08 (antibody, V domains shown)
VH: QVQLQQPGAELVKPGASVKLSCKASGYTFTSYLLHWVKQRPGQGLEWIGMIHPNGGSTNYNEKFKTKATLTVDKSSSTAYMQLSSLTSEDSAVYYCAPVYFGNSFAYWGQGTLVTVSA
VL: B2 VL with V81I, N97D, F98Y, I99Y, L102F, P106S, L112K
B9: chAb11 (antibody, V domains shown)
VH: B3 VH with S28T, S84N, A97T, M99L
VL: DIVMTQSPSFLSVSAGEKVTMSCKSSQSLFNGGNQKNYLAWYQQKPGQPPKLLIYGASTRDSGVPDRFTGSGSGTDFTLTISNVQAEDLAIYFCQNDHSFPLTFGAGTKLELK
B10: chAb18 (antibody, V domains shown)
VH: B6 VH
VL: B6 VL
B11: chAb04 (antibody, V domains shown)
VH: EVQLQQSGPELVKPGASVKMSCMASGYTFTDYNIHWVKRSHGSRLEWIGYISPISGGAGYNQKFMDKATLTVDKSSNTAYMELRSLTSEDSAVYYCTRGDYWGQGTTLTVSS
VL: DIVMTQSPSSLAVTVGEKVTMSCKSSQSLLNSGNQKNYLTWYQQKPGQPPKLLIYWASTRKSGVPDRFTGSGSGTDFTLTISSVQAEDLGIYYCLNDYGFPLTFGAGSKLELK

The binders below were run against T1, human Claudin18.1 (CLDN18.1) (human, UniProt P56856 1-261) (assay: FACS on CHOK1-18.1 cells;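 as to FACS MFI: test antibody binding to the cells detected by flow cytometry using a fluorescent dye-labelled secondary antibody, read out as median fluorescence intensity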).
T1 construct: whole, on cells; also called human Claudine18.1
Procedure: (§1) The specificity and cross-reactivity of these subclones were confirmed with FACs analysis. […] Fluorescent dye-conjugated secondary antibody was used to detect the binding of the primary antibody with the cells. Median fluorescence intensity (MFI) was measured by FACs analysis.
B1: no binding. B2: no binding. B3: no binding. B4: no binding. B5: no binding. B6: no binding. B7: no binding.

What follows are binders tested against T2, human Claudin18.2 (CLDN18.2) (human, UniProt P56856 1-261) (assay: cell-based or functional assay).
With B8 the “ADCC EC50” value was 2.22 nM and the “Max tumor cell killing (% of control), ADCC” value was 69.3 % of control. B9 was tested, and the “ADCC EC50” value was 3.7 nM and the “Max tumor cell killing (% of control), ADCC” value was 54.7 % of control. In the case of B10, the “ADCC EC50” value is reported as 5.07 nM and the “Max tumor cell killing (% of control), ADCC” value is reported as 61.5 % of control.

Molecular target: T2, human Claudin18.2 (CLDN18.2)
Assay: cell-based or functional assay
Remark: another data set of the same source
B8 was tested, and the “CDC EC50” value was 13.6 nM and the “Max CDC induced tumor cell killing (% of control)” value was 68.4 % of control. For B9, the “CDC EC50” value was 19.4 nM and the “Max CDC induced tumor cell killing (% of control)” value was 71.2 % of control. For B10, the “CDC EC50” value was 35 nM and the “Max CDC induced tumor cell killing (% of control)” value was 75.3 % of control.

Molecular target: T2, human Claudin18.2 (CLDN18.2)
Assay: cell-based or functional assay
Remark: another data set of the same source
In the case of B8, the “IC50 of indirect ADC cytotoxicity” value is reported as 0.45 nM and the Max inhibition % is reported as 92.5%. B9 was tested, and the “IC50 of indirect ADC cytotoxicity” value was 0.87 nM and the Max inhibition % was 93.5%. For B10, the “IC50 of indirect ADC cytotoxicity” value was 1.58 nM and the Max inhibition % was 90.7%.

Molecular target: T1, human Claudin18.1 (CLDN18.1)
Assay: FACS on CHOK1-18.1 cells
Remark: another data set of the same source
Procedure: as §1
With B1 the “FACS MFI” value was 80.8. B2 was tested, and the “FACS MFI” value was 82.3. For B3, the “FACS MFI” value was 80.8. With B4 the “FACS MFI” value was 80.8. For B5, the “FACS MFI” value was 80.8. For B6, the “FACS MFI” value was 79.4. In the case of B7, the “FACS MFI” value is reported as 82.3.

What follows are binders tested against T2, human Claudin18.2 (CLDN18.2) (assay: FACS on CHOK1-18.2 cells;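 as to FACS MFI: antibody binding to the cells detected with a fluorescently labelled secondary antibody and read out as median fluorescence intensity by flow cytometry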).
Procedure: as §1
In the case of B1, the “FACS MFI” value is reported as 8170. For B2, the “FACS MFI” value was 11500. In the case of B3, the “FACS MFI” value is reported as 7340. For B4, the “FACS MFI” value was 7390. In the case of B5, the “FACS MFI” value is reported as 10100. With B6 the “FACS MFI” value was 9910. For B7, the “FACS MFI” value was 12600.

Molecular target: T2, human Claudin18.2 (CLDN18.2)
Assay: FACS on CHOK1-18.2 cells
Remark: another data set of the same source
B8 was tested, and the EC50 was 3.6 nM. For B9, the EC50 was 3.63 nM. With B11 the EC50 was 2.14 nM. B10 gave an EC50 of 7.71 nM.

Each binder was assayed against T2, human Claudin18.2 (CLDN18.2) (assay: FACS on GAXC031 cells, antibody at 50 µg/ml).
B8 was tested, and the “MAX MFI” value was 5830. B9 was tested, and the “MAX MFI” value was 6420. For B11, the “MAX MFI” value was 3860. For B10, the “MAX MFI” value was 3690.

These binders were tested against T2, human Claudin18.2 (CLDN18.2) (assay: FACS on CHOK1-18.2 cells, antibody at 50 µg/ml).
For B8, the “MAX MFI” value was 71900. B9 was tested, and the “MAX MFI” value was 85600. In the case of B11, the “MAX MFI” value is reported as 75300. For B10, the “MAX MFI” value was 60200.
